Experimental data reported in the Human Domainome abundance scans (Beltran et al. 2025).
± gives the uncertainty stated by the source.

B1: Tyrosine-protein kinase Lck, residues 63 to 120; numbered along this chain, P06239 (parent)
chain: DNLVIALHSYEPSHDGDLGFEKGEQLRILEQSGEWWKAQSLTTGQEGFIPFNFVAKAN

Variants of: B1
Test: abundance fitness (aPCA) (normalised: wild type 0, dead -1); higher = more abundant; growth selection in yeast, the domain comes from the species named
Conditions: Homo sapiens

Row | Variant | abundance fitness
1 | G33V | -0.881 ± 0.12
2 | G33W | -0.929 ± 0.18
3 | G33Y | -0.922 ± 0.25
4 | E34A | -0.065 ± 0.13
5 | E34C | -0.276 ± 0.11
6 | E34F | -0.138 ± 0.2
7 | E34G | -0.13 ± 0.081
8 | E34H | -0.205 ± 0.14
9 | E34I | -0.142 ± 0.17
10 | E34L | -0.225 ± 0.078
11 | E34M | -0.262 ± 0.1
12 | E34N | -0.203 ± 0.16
13 | E34P | -0.183 ± 0.12
14 | E34Q | -0.149 ± 0.14
15 | E34R | 0.006 ± 0.07
16 | E34S | -0.054 ± 0.081
17 | E34T | -0.092 ± 0.093
18 | E34V | -0.076 ± 0.092
19 | E34W | -0.34 ± 0.091
20 | E34Y | -0.026 ± 0.19
21 | W35A | -0.044 ± 0.095
22 | W35C | -0.185 ± 0.15
23 | W35D | -0.444 ± 0.14
24 | W35G | -0.303 ± 0.11

Row | Variant | abundance fitness
25 | W35H | -0.081 ± 0.14
26 | W35I | -0.049 ± 0.13
27 | W35L | -0.029 ± 0.081
28 | W35M | 0.01 ± 0.12
29 | W35N | -0.128 ± 0.15
30 | W35Q | 0.069 ± 0.15
31 | W35R | 0.091 ± 0.085
32 | W35S | 0.002 ± 0.11
33 | W35Y | -0.131 ± 0.2
34 | W36A | 0.032 ± 0.094
35 | W36C | -0.046 ± 0.098
36 | W36D | -0.614 ± 0.18
37 | W36E | -0.881 ± 0.16
38 | W36F | -0.181 ± 0.13
39 | W36G | -0.283 ± 0.067
40 | W36H | -0.585 ± 0.27
41 | W36I | -0.617 ± 0.31
42 | W36K | -0.521 ± 0.22
43 | W36L | -0.101 ± 0.079
44 | W36M | -0.075 ± 0.11
45 | W36P | -0.298 ± 0.1
46 | W36R | -0.213 ± 0.066
47 | W36S | -0.408 ± 0.086
48 | W36T | -0.029 ± 0.15

Row | Variant | abundance fitness
49 | W36V | -0.1 ± 0.076
50 | W36Y | -0.074 ± 0.16
51 | K37A | -0.615 ± 0.12
52 | K37C | -0.593 ± 0.12
53 | K37D | -1.16 ± 0.29
54 | K37E | -0.435 ± 0.1
55 | K37F | -0.229 ± 0.14
56 | K37G | -0.96 ± 0.14
57 | K37H | -0.388 ± 0.29
58 | K37I | -0.151 ± 0.12
59 | K37M | -0.307 ± 0.12
60 | K37N | -0.548 ± 0.17
61 | K37P | -0.808 ± 0.18
62 | K37Q | -0.406 ± 0.14
63 | K37R | -0.046 ± 0.073
64 | K37S | -0.321 ± 0.085
65 | K37T | -0.267 ± 0.1
66 | K37V | -0.232 ± 0.092
67 | K37W | -0.152 ± 0.088
68 | K37Y | -0.177 ± 0.14
69 | A38C | -0.4 ± 0.12
70 | A38D | -1.01 ± 0.31
71 | A38E | -0.934 ± 0.19
72 | A38F | -0.771 ± 0.28

Row | Variant | abundance fitness
73 | A38G | -0.483 ± 0.077
74 | A38I | -0.788 ± 0.3
75 | A38K | -0.927 ± 0.27
76 | A38L | -0.337 ± 0.1
77 | A38M | -0.656 ± 0.2
78 | A38N | -0.445 ± 0.26
79 | A38Q | -0.891 ± 0.34
80 | A38R | -1.08 ± 0.15
81 | A38S | -0.795 ± 0.16
82 | A38T | -0.963 ± 0.23
83 | A38V | -0.104 ± 0.082
84 | A38W | -0.598 ± 0.19
85 | A38Y | -0.714 ± 0.22
86 | Q39A | -0.361 ± 0.12
87 | Q39C | -0.386 ± 0.13
88 | Q39D | -1.03 ± 0.35
89 | Q39F | -0.503 ± 0.2
90 | Q39G | -0.722 ± 0.095
91 | Q39I | -0.327 ± 0.17
92 | Q39K | -0.042 ± 0.12
93 | Q39L | -0.312 ± 0.083
94 | Q39M | -0.179 ± 0.11
95 | Q39N | -0.868 ± 0.3
96 | Q39P | -0.843 ± 0.23

Row | Variant | abundance fitness
97 | Q39R | -0.017 ± 0.073
98 | Q39S | -0.297 ± 0.092
99 | Q39T | -0.278 ± 0.11
100 | Q39W | -0.784 ± 0.12
101 | Q39Y | -0.468 ± 0.14
102 | S40A | -0.382 ± 0.088
103 | S40D | -0.626 ± 0.14
104 | S40E | -0.789 ± 0.13
105 | S40F | -0.908 ± 0.12
106 | S40G | -0.795 ± 0.087
107 | S40H | -0.115 ± 0.15
108 | S40I | -0.687 ± 0.21
109 | S40K | -0.076 ± 0.13
110 | S40L | -0.538 ± 0.083
111 | S40M | -0.918 ± 0.17
112 | S40N | -0.135 ± 0.15
113 | S40P | -0.793 ± 0.15
114 | S40Q | -0.622 ± 0.18
115 | S40R | -0.107 ± 0.067
116 | S40T | -0.484 ± 0.14
117 | S40V | -0.641 ± 0.088
118 | S40W | -0.989 ± 0.15
119 | S40Y | -0.862 ± 0.21
120 | L41A | -0.382 ± 0.094

Row | Variant | abundance fitness
121 | L41C | -0.068 ± 0.1
122 | L41D | -0.666 ± 0.2
123 | L41E | -0.153 ± 0.099
124 | L41F | -0.54 ± 0.12
125 | L41G | -0.721 ± 0.08
126 | L41H | -0.765 ± 0.18
127 | L41I | -0.058 ± 0.14
128 | L41K | -0.348 ± 0.16
129 | L41M | -0.227 ± 0.13
130 | L41N | -0.624 ± 0.24
131 | L41P | -0.339 ± 0.14
132 | L41Q | -0.167 ± 0.2
133 | L41R | -0.513 ± 0.073
134 | L41S | -0.478 ± 0.077
135 | L41T | -0.149 ± 0.11
136 | L41W | -0.933 ± 0.12
137 | L41Y | -0.65 ± 0.16
138 | T42A | -0.035 ± 0.082
139 | T42D | -0.181 ± 0.13
140 | T42E | -0.015 ± 0.13
141 | T42F | -0.305 ± 0.14
142 | T42G | -0.248 ± 0.079
143 | T42H | -0.08 ± 0.15
144 | T42I | -0.049 ± 0.083

Row | Variant | abundance fitness
145 | T42K | 0.042 ± 0.12
146 | T42L | -0.12 ± 0.097
147 | T42M | -0.101 ± 0.15
148 | T42N | 0.034 ± 0.14
149 | T42P | -0.715 ± 0.14
150 | T42Q | -0.057 ± 0.12
151 | T42R | -0.059 ± 0.064
152 | T42S | -0.031 ± 0.078
153 | T42V | -0.001 ± 0.11
154 | T42W | -0.24 ± 0.078
155 | T42Y | -0.129 ± 0.15
156 | T43A | -0.617 ± 0.11
157 | T43C | -0.949 ± 0.25
158 | T43D | -0.446 ± 0.12
159 | T43E | -0.643 ± 0.13
160 | T43F | -0.957 ± 0.26
161 | T43G | -0.658 ± 0.063
162 | T43H | -0.622 ± 0.24
163 | T43I | -0.941 ± 0.26
164 | T43K | -0.698 ± 0.16
165 | T43L | -0.831 ± 0.11
166 | T43M | -0.766 ± 0.17
167 | T43N | -0.277 ± 0.21
